Reference: publication PMC5382158 (Frontiers in Cellular and Infection Microbiology, 2017)

T1: Rv2617c-T18 (M. tuberculosis, UniProt I6XER9 1-146)
T1 sequence: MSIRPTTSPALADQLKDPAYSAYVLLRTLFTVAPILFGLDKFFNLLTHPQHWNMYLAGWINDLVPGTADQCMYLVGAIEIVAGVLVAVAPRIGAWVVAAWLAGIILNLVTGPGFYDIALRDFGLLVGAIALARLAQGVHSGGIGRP

T2: NarK2-T18 (M. tuberculosis, UniProt P9WJY7 1-395)
T2 sequence: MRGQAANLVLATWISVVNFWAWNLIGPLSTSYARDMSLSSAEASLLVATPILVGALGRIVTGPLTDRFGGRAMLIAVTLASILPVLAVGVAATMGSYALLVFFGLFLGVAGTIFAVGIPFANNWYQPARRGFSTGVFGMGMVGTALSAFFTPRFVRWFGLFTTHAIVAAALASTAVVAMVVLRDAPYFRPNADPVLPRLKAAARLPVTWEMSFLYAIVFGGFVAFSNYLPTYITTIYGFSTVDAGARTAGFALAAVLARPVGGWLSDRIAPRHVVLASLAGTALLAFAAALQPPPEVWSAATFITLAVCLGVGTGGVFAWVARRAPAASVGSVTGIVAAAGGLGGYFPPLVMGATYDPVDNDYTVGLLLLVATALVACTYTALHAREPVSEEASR


What was measured:
Experiment in all cases: two-hybrid
[1] = target: NarI-T18 (M. tuberculosis)
Rv2617c-T18 = target: T1, Rv2617c-T18; settings: partners not purified
NarK2-T18 = target: T2, NarK2-T18; settings: partners not purified

Molecule | β-galactosidase activity [1] | β-galactosidase activity (Rv2617c-T18) | β-galactosidase activity (NarK2-T18)
KdpF-T25 (peptide) | 720 Miller units |  | 
MTTVDNIVGLVIAVALMAFLFAALLFPEKF [KdpF-T25] |  | 1870 Miller units | 868 Miller units
